The values that follow come from patent US6537785.

One data set deals with RNAse B (UniProt P61823).
The target of a further data set is uteroferrin (UniProt P09889).
Sequence of UniProt P09889 (P09889 22-340): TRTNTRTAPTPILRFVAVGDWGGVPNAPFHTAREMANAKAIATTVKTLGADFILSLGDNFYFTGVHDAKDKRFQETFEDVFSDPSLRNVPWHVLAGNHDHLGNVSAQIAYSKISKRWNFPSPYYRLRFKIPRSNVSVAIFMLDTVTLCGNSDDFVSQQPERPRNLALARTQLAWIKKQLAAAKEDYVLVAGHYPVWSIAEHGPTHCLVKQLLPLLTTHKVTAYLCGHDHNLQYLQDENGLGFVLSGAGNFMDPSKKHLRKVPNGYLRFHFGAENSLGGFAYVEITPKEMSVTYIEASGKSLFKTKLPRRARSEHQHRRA

Sequence of UniProt P61823 (P61823 27-150): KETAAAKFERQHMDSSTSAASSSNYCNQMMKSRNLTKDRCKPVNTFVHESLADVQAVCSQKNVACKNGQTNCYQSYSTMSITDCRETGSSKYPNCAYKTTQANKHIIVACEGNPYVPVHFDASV

On to “bovine GlcNAc-phosphotransferase (UDP-N-acetylglucosamine: lysosomal enzyme N-Acetylglucosamine-1-phosphotransferase)”, for which the “Km (transfer of GlcNAc-1-P to glycoprotein acceptor)” value is listed as “the Km was not reached at the solubility limit of the protein (at 600 µM)” in the data set with RNAse B, “Kms below 20 µM” in the data set on cathepsin D and “Kms below 20 µM” with uteroferrin.
